Measured values as given in article doi:10.1101/2025.07.31.667873 (bioRxiv, 2025).

Biological target: SF3B5 (human (endogenous in K562), UniProt Q9BWJ5 1-86)
Assay: cryo-EM structure

B1: TAF6L (natural protein)
chain: MSEREERRFVEIPRESVRLMAESTGLELSDEVAALLAEDVCYRLREATQNSSQFMKHTKRRKLTVEDFNRALRWSSVEAVCGYGSQEALPMRPAREGELYFPEDREVNLVELALATNIPKGCAETAVRVHVSYLDGKGNLAPQGSVPSAVSSLTDDLLKYYHQVTRAVLGDDPQLMKVALQDLQTNSKIGALLPYFVYVVSGVKSVSHDLEQLHRLLQVARSLFRNPHLCLGPYVRCLVGSVLYCVLEPLAASINPLNDHWTLRDGAALLLSHIFWTHGDLVSGLYQHILLSLQKILADPVRPLCCHYGAVVGLHALGWKAVERVLYPHLSTYWTNLQAVLDDYSVSNAQVKADGHKVYGAILVAVERLLKMKAQAAEPNRGGPGGRGCRRLDDLPWDSLLFQESSSGGGAEPSFGSGLPLPPGGAGPEDPSLSVTLADIYRELYAFFGDSLATRFGTGQPAPTAPRPPGDKKEPAAAPDSVRKMPQLTASAIVSPHGDESPRGSGGGGPASASGPAASESRPLPRVHRARGAPRQQGPGTGTRDVFQKSRFAPRGAPHFRFIIAGRQAGRRCRGRLFQTAFPAPYGPSPASRYVQKLPMIGRTSRPARRWALSDYSLYLPL
B1: binds.
